The results in this text go back to patent publication US20100273865A1 (VERENIGING VOOR CHRISTELIJK HOGER ONDERWIJS …, published 2010).

In the experiment the target is T1, CREB (Homo sapiens (Human), UniProt P16220 1-327).
T1 construct: also called CREB1
Briefly: co-immunoprecipitation from HEK293 cells, Western blot.

T1 sequence (P16220 other isoform, or with tags, fused parts or gaps): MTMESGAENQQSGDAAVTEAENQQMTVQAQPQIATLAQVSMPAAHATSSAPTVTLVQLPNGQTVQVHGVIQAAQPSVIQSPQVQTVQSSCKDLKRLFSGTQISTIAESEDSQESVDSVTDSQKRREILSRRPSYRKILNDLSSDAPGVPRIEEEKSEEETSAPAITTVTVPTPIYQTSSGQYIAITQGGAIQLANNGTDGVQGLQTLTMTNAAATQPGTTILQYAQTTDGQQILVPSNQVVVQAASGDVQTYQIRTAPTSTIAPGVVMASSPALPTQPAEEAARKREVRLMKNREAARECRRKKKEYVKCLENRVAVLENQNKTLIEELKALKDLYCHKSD

B1: Flag-tagged dominant-negative NFIL3 (other)
chain: MDYKDDDDKHMASMTGGQQMGRDPDLEQRAEELARENEELEKEAEELEQELAELENKLIALGEENATLKAELLSLKLKFGLISSTVYAQEIQKLSNSTAVYFQDYQTSKAAVSSYVDEHEPAMVAGSCISVIKHSPQSSLSDVSEVSSVEHTQESPAQGGCRSPENKFPVIKQEPVELESFARESREERGAYSASIYQSYMGSSFSTYSHSPPLLQVHGSTSNSPRTSEADEGVVGKSSDGEDEQQVPKGPIHSPVELQRVHATVVKVPEVNPSALPHKLRIKAKAMQVKVEALDSEFEGMQKLSSPADALAKRHFDLEKHGASGTAHSSLPPFSVQVTNIQDWSLRSEHWHHKELGGKTQGTFKTGVVEVKDSGYKVSEAENLYLKQGVANLSAEVVSLKRFIATQPISASDSR
notes: Expressed in HEK293 cells from modified pcDNA3.1; Species of the NFIL3 portion is inferred from the rat cDNA named in the same paragraph; also called DN-NFIL3; dominant-negative NFIL3 protein
Consider B1, for which the binding result was “no binding”.
